# Data published in patent US20250066490A1 (PROFOUNDBIO US, published 2025).
# T1: mouse CD70 extra-cellular domain (ECD) linked to His tag (mouse, UniProt O55237 45-195)
# T1 construct: extracellular domain; also called MS CD70; not shown: His tag
# T1 sequence (looked up): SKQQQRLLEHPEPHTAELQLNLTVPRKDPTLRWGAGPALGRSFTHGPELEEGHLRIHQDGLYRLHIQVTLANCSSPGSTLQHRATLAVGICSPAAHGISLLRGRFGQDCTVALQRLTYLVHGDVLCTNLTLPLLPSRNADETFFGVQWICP
# T2: CD70 ECD (antigen immobilized on the CM5 chip) (UniProt P32970 39-193)
# T2 construct: extracellular domain; also called CD70 antigen
# T2 sequence (looked up): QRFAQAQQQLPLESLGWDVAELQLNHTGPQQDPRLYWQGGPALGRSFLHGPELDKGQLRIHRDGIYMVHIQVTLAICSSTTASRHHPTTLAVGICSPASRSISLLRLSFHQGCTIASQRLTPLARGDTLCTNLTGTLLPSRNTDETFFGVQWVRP
# T3: human CD70 expressed on the cell surface of tumor cell lines (human, UniProt P32970 1-193)
# T3 construct: whole, on cells
# T3 sequence (looked up): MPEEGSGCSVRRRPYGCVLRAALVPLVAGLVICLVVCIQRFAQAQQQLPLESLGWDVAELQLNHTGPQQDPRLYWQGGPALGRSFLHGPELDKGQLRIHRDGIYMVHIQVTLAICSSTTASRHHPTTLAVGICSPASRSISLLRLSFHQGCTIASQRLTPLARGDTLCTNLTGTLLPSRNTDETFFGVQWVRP
# T4: human CD70 recombinant protein (human, UniProt P32970 39-193, limits assumed)
# T4 construct: May be the same reagent as ACRO CDL-H5246; also called CD70 protein
# T4 sequence (looked up): T2 sequence (looked up)
# B1: 2E7, full IgG (antibody, V domains shown)
# VH: QVQLQESGPGLVKPSETLSLTCTVSGGSVSSDYYYWSWIRQPPGKGLEWLGYIYYSGSTNYNPSLKSRVTISVDTSKNQFSLKLRSVTTADTAVYYCARGDGDFLGVCFDYWGQGTLVTVSS
# VL: EIVLTQSPATLSLSPGERATLSCRASQSVSSYLAWYQQKPGQAPRLLIFDASNRATGIPARFSGSGSGTDFTLTISSLEPEDFAVYYCQQRSNWPLTFGGGTKVEIK
# How the values were obtained:
# [1] = target: T5, cyno CD70 recombinant ECD protein (cyno); assay: BLI, global 1:1 fit over 200-3.13 nM; cell repeated in each concentration row
# T5 construct: extracellular domain; The sentence on the purchase names human, rat and mouse ECD-His only
# [2] = target: T1, mouse CD70 extra-cellular domain (ECD) …; assay: BLI, global fit, cell repeated in each row; response below range of quantification, filing reports no cross-reactivity
# Procedure: (§1) Recombinant proteins consisting of human, rat, or mouse CD70 extra-cellular domain (ECD) linked to His tag was purchased (from ACRO systems). 69A7 and 2E7 (20 nM) were immobilized on anti-human IgG Fc biosensor tips (ForteBio). Binding assays using one concentration (100 nM) of recombinant protein in solution were performed using Octet RED (ForteBio). Association time was set at 180s and dissociation time was set at 300s. Binding affinity was calculated using ForteBio Data Acquisition 6.3 software. Affinity was derived by fitting the kinetic data to a 1:1 Langmuir binding model utilizing global fitting algorithms. […] 2E7 had no cross-reactivity to rat or mouse CD70 (Table 10).
# [3] = target: T6, rat CD70 extra-cellular domain (ECD) linked to His tag (rat); assay: as above
# T6 construct: extracellular domain
# Procedure: as §1
# [4] = target: T2, CD70 ECD (antigen immobilized on the …); assay: SPR (Biacore T200), CD70 ECD on CM5 chip
# Procedure: The immobilization of antigen CD70 ECD was performed at 25° C. with HBS-EP as the running buffer. Sensor chip surface of flow cells 1, 4 were activated by freshly mixed 50 mmol/L N-Hydroxy succinimide (NHS) and 200 mmol/L 1-ethyl-3-(3-dimethylaminopropyl) carbodiimide hydrochloride (EDC) for 420s (10 μL/min). Afterwards, CD70 antigen diluted in 10 mmol/L NaAC (pH 4.5) was injected into flow cell 4 to achieve conjugation of the appropriate Response Unit, while flow cell 1 was set as a blank. After the amine coupling reaction, the remaining active coupling sites on chip surface were blocked by 420s injection of 1 mol/L ethanolamine hydrochloride.
# The assay was performed at 25° C. and the running buffer was HBS-EP. Diluted antibodies were injected over the surface of flow cells 1 and 4 during the association phase, followed by injecting running buffer as the dissociation phase. All the data were processed using Biacore T200 Evaluation software version 3.1. Flow cell 1 and a blank injection of buffer in each cycle were used as a double reference for Response Units subtraction. Kinetic data of the interaction between the antibodies and CD70 antigen were obtained through affinity measurement.
# [5] = target: T3, human CD70 expressed on the cell …; assay: flow cytometry on DBTRG-05MG cells, PE anti-human Fc, MFI; same fit as Table 6, which prints it in nM
# Procedure: (§2) The lead antibodies were tested for binding to renal carcinoma cells and glioblastoma cells expressing CD70 on the cell surface by flow cytometry. […] U251 cells were cultured with MEM medium containing of 10% FBS and 1% NEAA+1 mM sodium pyruvate. DBTRG-05MG cells were cultured with DMEM medium (Gibco, Cat #C11995500BT) containing of 10% FBS. Each of the lead antibodies and the controls were incubated for 30 mins with the different cell lines (3×10⁵ cells per well) in 0.2 ml FACS buffer (1×PBS with 0.1% BSA) at 4° C. Then, the cells were pelleted, washed, and incubated at 4° C. for 30 mins with 100 μl of 1:200 diluted PE-conjugated anti human Fc (Abcam, Ab98596) in FACS buffer. The cells were pelleted again, washed with PBS, resuspended in FACS buffer and analyzed by flow cytometer (Beckman, CytoFLEX).
# (§3) Antibodies 2H8 and 2D2 had slightly higher binding ability to the cell lines than that of antibody 69A7.
# [6] = target: T3, human CD70 expressed on the cell …; assay: flow cytometry on 786-O cells
# Procedure: as §2, §3
# [7] = target: T4, human CD70 recombinant protein; assay: ELISA, coated human CD70, IgG titrated
# Procedure: The binding specificity of the CD70 antibodies was tested by ELISA according to a standard protocol. Briefly, 96-well micro-plates were coated with 2 μg/ml of human or cynomolgus CD70 recombinant protein in PBS at 100 μl per well and incubated overnight at 4° C. The plates were washed twice with TBS+0.5% Tween20. 200 μL of blocking buffer (2% BSA in PBS) was added to each well, and the plates were incubated at 37° C. for 2 hours. The plates were washed using the wash buffer mentioned above. Serially diluted antibodies were added to the ELISA plates using 100 μl per well, and the plates were incubated for 1 hour at room temperature. Then plates were washed 3 times. HRP conjugated anti-human Fc antibody solution (Sigma, I18885-2ML, diluted with blocking buffer) was added to the plates using 100 μl per well. The plates were incubated at room temperature for 1 hour and then washed 3 times. Then the TMB solution was added to plates using 100 μl per well and the plates were placed at RT for 5-15 mins. Then the stop solution (2M H2SO4) was added using 50 μl per well. The absorbance was measured at A450 and A630.
binder,measurement,setting,value
B1,Kd,[1],0.39 nM
same,koff,[1],0.000241 s⁻¹
same,kon,[1],618000 M⁻¹ s⁻¹
same,Kd,[2],1030 nM
same,koff,[2],0.121 s⁻¹
same,kon,[2],117000 M⁻¹ s⁻¹
same,Kd,[3],1.75 nM
same,koff,[3],0.0104 s⁻¹
same,kon,[3],5.9e+06 M⁻¹ s⁻¹
same,fold greater affinity than parent antibody 69A7,[4],22 fold
same,EC50,[5],0.917 mg/L
same,EC50,[6],2.69 nM
same,EC50 ratio against antibody 69A7,[7],1.5 times
